Measured values published in the DeepSol protein solubility set.

Assay: soluble on expression in E. coli; label from the status in PepcDB or PDB records

| Sequence | soluble on expression in E. coli |
| --- | --- |
| MKYIIIGLGNYGHVLAEELSALGHEIIGADISESRVDSIKDKVATAFVIDATDEQSLSVLPLNSVDIVVVAIGENFGASVRVVALLKQKKVPRIFARAIDAVHKAVLEAFSLEKILTPEEDAARSLVQLLDFGATMEAFRIDQDYYVVKFTVPKKFVGYFVNELNMDEEFHLKLIALKRANKVTNCLGISLMERHVKNELPGDEKVEEGDELVCYGKYRDFQSFWKAILEHHHHHH | soluble |
| MAKKRSKLEIIQAILEACKSGSPKTRIMYGANLSYALTGRYIKMLMDLEIIRQEGKQYMLTKKGEELLEDIRKFNEMRKNMDQLKEKINSVLSIRQ | soluble |
| MGSDKIHHHHHHMDTRTLIYLHQYFSIPTVSGGTRSWEFSTRLVQDKWQVCMFCGDSEIHGIPAVNILKLFNTKNVSFKLNVIPLKYSNYMSFSRRIFAFLSFAVRSSLQVLREEKADLTFATSTPLTIAIPALLRKWLHGTPYIFEVRDLWPEMPIAMKAVRSPLAIFLARQLELIAYQNASHIVALSPGMKEGIVKQGISPEKVEVIPNACDNARFNISETIGLEFLRQHPELSGGPLIVYTGTFGHINGVNYLAYLASHMRNIIPEAKFLVVGSGVCESEVREASCQLGILEKNFWMWPPIPKAEMPALLSACTVATSLFKPIPEMEHNSANKFFDALAAGRPVVINYGGWQKEILEQSGAGISISSNDPKVAAIQLAKFLNSSECLQSAQAAARKLADTVFDRDILYKKLANVFQKVLNETHSDI | not soluble |
| MAHHHHHHMRVLSGVELEAVNRVVEHLRCHPEDLHRNEFRELREYMASLGASIPPPPDTPDVSGVRKEANSDDEEEYVSEPDSQRCALEPVSDDDITAYDGTDPTPEDEERAMGLKAQAAELAADGDFDKAIELMGQALRIVPGKAMYWAQRASYFLKCTQPGAALQDANRALDLNPENVRALRVRGTVNRRLGKWEEALKDLSEAQAVDYDEGIDEILRFVQKRTNDRRQFQQRKKEAQRLRQEALRRQREHELREEEMKREQQQQRDQQQSGAGDFPGGAGGFPGGFPGGAGGGGMQSFMESLFQDQELAEAMKDPEVAAKLATLRSNPMAALQMMGDPKVGPLIQKMMSKAMGGSSPGSSPFGAGASAGATSHADAHHSDELD | soluble |
| MSLYPDDSLTLHTDLYQINMMQVYFDQGIHNKKAVFEVYFRQQPFKNGYAVFAGLERIVNYLEDLRFSDSDIAYLESLGYHGAFLDYLRNFKLELTVRSAQEGDLVFANEPIVQVEGPLAQCQLVETALLNIVNYQTLVATKAARIRSVIEDEPLMEFGTRRAQEMDAAIWGTRAAVIGGANGTSNVRAGKLFDIPVLGTHAHALVQVYGNDYEAFKAYAATHKNCVFLVDTYDTLRIGVPAAIQVARELGDQINFMGVRIDSGDIAYISKKVRQQLDEAGFTEAKIYASNDLDENTILNLKMQKAKIDVWGVGTKLITAYDQPALGAVYKIVAIEDETGQMRNTIKLSNNAEKVSTPGKKQVWRITSREKGKSEGDYITYDGVDISYMTEIKMFHPTYTYIKKTVRNFDAVPLLVDIFKEGILVYNLPSLTDIQDYARKEFDKLWDEYKRVLNPQHYPVDLARDVWQDKMDLIDKMRKEALGEGEEEEGHHHHHH | soluble |
| MAHHHHHHMQRHTVEKKLQRSTHAAECHTDVAVVRLPHVQREVRQRLVHHAARVAVDSSLRQGRHNRVGHLKGKTRRAMPSVPAAARARVAVHRLRPGHVARRVVVARAAPEHHHALRKHTVVQHLPPFLVQVAPHHKPRGRRHNRVRWKKFGKGCTSFHLTVVCKHHSGAAARQLNFLLRTWHT | not soluble |
| MKTGYVLKGRVIDGTLGPALEQGAVVTEGERIAWVGPQSGLPAQYAGDRHTVVDLPGRTIMPGLIDAHTHISFGESRSEEENALYTPVEFRTAKALWYARKVLQAGVTSAFDAATSYNIAQAVRDAIDTGMFEGPRFTVSGKQLTNHHGLEDSFPNEMAFPPGQSAVLVKTREDLVEAIHYQVKDEVDAIKVSGSNDNLITPDALGSSAFTYEEFKIIADETHRLGRLCSVHARSRDAALYAAQAGFDNLFHASYIDDEGIEACLKNGCVITPTLTLLVNLVEAKQSHAGASSAQAFRQEIEAASVNLRRAYDAGVPLLAGSESGWSPVPYGHWHAREMEIFVKLLGLTPLQAIHANTLACTRLLARHGHEVGKLEASRLADVLVLPGNPLEDITLLQRPSRFDYIFKGGTPVDRTAPAPRVRKWYERTKIFLAGVYEYDQENACGRLVQ | not soluble |
| MASEVPQVVSLDPTSIPIEYNTPIHDIKVQVYDIKGGCNVEEGLTIFLVNNPGKENGPVKISSKVNDKQVSEFLKDENMEKFNVKLGTSKHFYMFNDNKNSVAVGYVGCGSVADLSEADMKRVVLSLVTMLHDNKLSKLTVVFEINVDKNLFRFFLETLFYEYMTDERFKSTDKNVNMEYIKHLGVYINNADTYKEEVEKARVYYFGTYYASQLIAAPSNYCNPVSLSNAAVELAQKLNLEYKILGVKELEELKMGAYLSVGKGSMYPNKFIHLTYKSKGDVKKKIALVGKGITFDSGGYNLKAAPGSMIDLMKFDMSGCAAVLGCAYCVGTLKPENVEIHFLSAVCENMVSKNSYRPGDIITASNGKTIEVGNTDAEGRLTLADALVYAEKLGVDYIVDIATLTGAMLYSLGTSYAGVFGNNEELINKILQSSKTSNEPVWWLPIINEYRATLNSKYADINQISSSVKASSIVASLFLKEFVQNTAWAHIDIAGVSWNFKARKPKGFGVRLLTEFVLNDALHHHHHH | soluble |
| MKKLSGIIVLLLAGAALYLALKTSPIDPLAWDAPAAPQMTGVLEPNDTLMKAELLGQGQLHGPEDTAVDSQGRVYAGLADGRVVRLDASGKVETFVDTGGRPLGMDFDAAGNLILADAWKGLLRIDPQGKVETLATEADSVPFAFTDDLDIASDGRIYFSDASSKFHQPDYILDLLEARPHGRLLRYDPSTGKTEVLLKDLYFANGVALSANEDFVLVNETYRYRITRYWLKGEKAGQHEVFIDNLPGLPDNLQGDRKGTFWVALPTPRKADADFLHRHPWLKAQLAKLPRMFLPKPTAYGLVIAIDEQGRIVRSLHDTSGHHLRMITSAKPVGDQLYFGSLENDRIGRLAIPLEHHHHHH | soluble |
| GMAHPPQIRIPATYLRGGTSKGVFFRLEDLPESCRVPGEARDRLFMRVIGSPDPYAAHIDGMGGATSSTSKCVILSKSSQPGHDVDYLYGQVSIDKPFVDWSGNCGNLSTGAGAFALHAGLVDPARIPEDGICEVRIWQANIGKTIIAHVPVSGGQVQETGDFELDGVTFPAAEIVLEFLDPSDDGEDGGAIFPTGNLVDDLEVPGVGTFKATMINAGIPTVFVNAEEIGYRGTELREEINGDPQQLARFERIRVAGALRMGLIKTPEEAATRQHTPKIAFVAPPRDYRTASGKLVAAGDIDLLVRALSMGKLHHAMMGTAAVAIGTAAAIPGTLVNLAAGGGERSAVRFGHPSGTLRVGAEASQANGEWTVTKAIMSRSARILMEGWVRVPGDAF | soluble |
| MSLAAENILQRQFKAEAPCEKWVTDITEFRAGGQKLYLSPILDLFYGEIVAWETACRPTEELVKRMLNKGLESLAEGEKPLLHSDQGWHYRIKSYQSALADRGLVQSMSRKGNSLDNAVMENFFGHLKEEMYYRRDYRNVEELENAVNEYITYWNQKRIKLSLGGLSPVEYRTEYQKAGEGHHHHHH | not soluble |
| AASPPTEEAVVATEPLTREDLIAYLASGCKSKEKWRIGTEHEKFGFEVNTLRPMKYDQIAELLNSIAERFEWEKVMEGDKIIGLKQGKQSISLEPGGQFELSGAPLETLHQTCAEVNSHLYQVKAVAEEMGIGFLGMGFQPKWRREDIPTMPKGRYDIMRNYMPKVGSLGLDMMLRTCTVQVNLDFSSEADMIRKFRAGLALQPIATALFANSPFTEGKPNGFLSMRSHIWTDTDKDRTGMLPFVFDDSFGFEQYVDYALDVPMYFAYRNGKYVDCTGMTFRQFLAGKLPCLPGELPTYNDWENHLTTIFPEVRLKRYMEMRGADGGPWRRLCALPAFWVGLLYDEDVLQSVLDLTADWTPAEREMLRNKVPVTGLKTPFRDGLLKHVAEDVLKLAKDGLERRGYKEVGFLNAVTEVVRTGVTPAENLLEMYNGEWGQSVDPVFQELLY | soluble |
| MSLHILHIASSPRGERSVSLKLASRYLETLTSLHPESTVDVLDVWTIDLLPFDGPALEAKYADLQGVQMSDEQQAVWKQIHALGERFHRADVILFSVPMWNFGVPYRLKHLIDSVSQRGVLFEFDAQGMRGLLKGKNVVVFASRGVALGEDFPTEAYDHQVAYLKTWARMVGIPTIDAVLSEATLADPATAEANFTAALAEASKLAAAVQEGHHHHHH | soluble |
| AKKAMEQILIPVANPETIENLVNLALVIKDAKQKNGMIALNVINDNNSSENKELQGKRNLEKAAMIAAAADVPVTMVSRYDLNIASGIIHTIKEYEATDVVIGLHRKANIVDSFFGNLAESLLKGTHREVMIAKFLM | not soluble |
| MGHHHHHHSHMLKDFLKEQGFEVRENHEVDAVIIGQDKEIEFKKIKNATSAVFLKGAKIIPVNLSKIVKDSDGLYFPGSGSYAYMFKHATNYEGEIPNLGKPSKEFINLALEGLPREKVFLISDDIYTDLMGAKELGIGTIFMTTGKYKQEELKKANFKPDYVFHSLKELMREIKKWLS | not soluble |
| MLRSTVIVTAHRRKAFIKDAIESVMENSLKPTEIIVVKNFKDYQIDSFLETYHVKNIYTDDETLGGKISLGIYQSSGDILFFLDDDDLFSKDKIREVIYKFSKYDIGFYHNAQEVIHNKLTGSNLSTDNQRFMYYTSIDTRRLKELLYKFKAGFNGSSIVISRDLAMRCVDLLKNVNISVDTFLLFCAVENNLPIMIDFRKLTYYRIIMSQNSNTEVNDKLFKMLYEDALYFKQIFSSKALRDFIEMSIIQHDFLYKIISKKEISKRDALISMVKMLRYSLKYPNKWNFFLQGLSLLSVFSAEKSRSLYLKKVRSNSMLSILEHHHHHH | soluble |
| SNAMPVRVIVDSSACLPTHVAEDLDITVINLHVMNNGEERSTSGLSSLELAASYARQLERGGDDGVLALHISKELSSTWSAAVTAAAVFDDDSVRVVDTSSLGMAVGAAAMAAARMAKDGASLQECYDIAVDTLKRSETWIYLHRIDEIWKSGRISTATAMVSTALATRPIMRFNGGRMEIAAKTRTQSKAFAKLVELAQIRADGEPVFIAIGQNEAREAAKQLEELLRNALPEGSSFMSVDIDPTLAVHSGPGAVSVSAVFANQAPELSTGKAGAK | soluble |
| MSQSKVAMKKDSMRKNKKLVINIALDKEVLASRVEADHDLGSVRDEKERLESSERRREVCSKAEDIVDKAIDNHSRVRGDGIMREADVGTGLSGALNRLREQGTFKEEGKVVGVKDNNHEDDRFKDRFKDIQIQRVNKWGRIMTEKEAYRSLCHGFHGKGPGKKKQEKQRKKHEDKSKQMESSERSVERIREIHAISKTPYIVL | soluble |
| MSLKTYKGYLIDLDGTMYNGTEKIEEACEFVRTLKDRGVPYLFVTNNSSRTPKQVADKLVSFDIPATEEQVFTTSMATAQHIAQQKKDASVYVIGEEGIRQAIEENGLTFGGENADFVVVGIDRSITYEKFAVGCLAIRNGARFISTNGDIAIPTERGLLPGNGSLTSVLTVSTGVQPVFIGKPESIIMEQAMRVLGTDVSETLMVGDNYATDIMAGINAGMDTLLVHTGVTKREHMTDDMEKPTHAIDSLTEWIPYIEGHHHHHH | soluble |
| CKRNVFNPSIPNRTQFIEDPIANLSIPSKDAAIKVTPYTFEGTSGRVYAHVERFFKFNGEYYIIFFRRYIYDTQAGTYAETAPGGNYHLIKIGKSMKYQEVAVNLNQDHPGLYARYTTIAQGNAYIKGSDIYVPINMADLSKGYYQSSSADLSKWTTNNNTALDVAGLGLTKIEVMDTSRITVGKYTYMYNGGGLQFSINRLEDRMRQAAERYETKMVFNEADFNNLHMFDIGMDTDGDNQIDYRMNPTNYIENDTDYSWIGMQTPHQVWIMPFNDGEKDYLIRFVEYCSGMYNINTLKTERDSAKTKADTALTQALALVSNPNSSKAEIAEACYQSIRNNLEYEVRNYFIGKYESVFKTSTPTAYVVPNYALTHYVIEIVDIQ | not soluble |
